Experiment [1] has as its target Pmel T cell receptor (cognate TCR against GP100/D^b), on CD8+ T cells of Pmel TCR transgenic mice (mouse). Kind of experiment: cell-based or functional assay.
Experiment [2] deals with P14 T cell receptor (TCR that specifically recognizes LCMV GP33/D^b), on CD8+ T cells of P14 TCR transgenic mice (mouse). The experiment can be described thus: cell-based or functional assay.
Experiment [3] shares this target. The experiment can be described thus: flow cytometry after intravenous injection of pMHC-LNPs carrying mCD19 CAR mRNA in p14 mice. Background: Flow cytometry measures light scatter and fluorescence of single cells or particles in a stream.
For experiment [4] the target is unchanged. Kind of experiment: flow cytometry, APNs on CD8+ T cells from P14 mice, in vitro.
Experiment [5] shares this target.
For experiment [6] the target is unchanged. This is another data set of the same source.

Several values for one entry are separate records, joined by “and”; a condition that tells them apart may be missing. Identical values can stand only once.

“GP33/D^b antigen-presenting nanoparticle (APN): LCMV GP33 peptide […] on H2-D^b, lipid-anchore (peptide-MHC)”: in experiment [1], the in vivo transfection of Pmel CD8+ splenocytes (surface VHH) was 3%. Further, in experiment [2], the in vivo transfection efficiency (surface VHH) of P14 CD8+ splenocytes came out at 40%, the in vivo transfection efficiency of mCD19 CAR mRNA in CD8+ T cells of p14 mice was 60%, the in vivo transfection of CD8+ T cells with hCD19 CAR mRNA in p14 mice turned out to be 30% and the transfection efficiency with eGFP mRNA in P14 CD8+ T cells in vitro was determined as 31%. In experiment [3], the percent of CD8+ T cells targeted was > 80%. The percent of CD8+ T cells bound in experiment [4] was 97%. In addition, the percent of CD8+ T cells targeted (DiD fluorescence) in experiment [5] is > 95%.
As for “GP33/D^b tetramer (fluorescent streptavidin tetramer of […]/H2-D^b monomers) (from UniProt P01899 25-309) (peptide-MHC)”, in experiment [6], the percent of CD8+ splenocytes stained was > 95%.
As for “GP100/D^b antigen-presenting nanoparticle (APN): GP100 peptide … on H2-D^b on an mRNA lipid nanoparticle (peptide-MHC)”, the in vivo transfection of Pmel CD8+ splenocytes (surface VHH) in experiment [1] is 30% and 40%. The in vivo transfection efficiency (surface VHH) of P14 CD8+ splenocytes in experiment [2] was < 2%. Moreover, the percent of CD8+ T cells stained in experiment [4] was 3.22%. Besides, the percent binding (DiD fluorescence) in experiment [5] was < 2%.
